Data from PMC11602501 (Frontiers in Immunology, 2024).

Columns and labels:
[1] = target: T1, FP15 A517E (HIV-1 Env fusion peptide 512-526, most …, A517E); test: peptide or protein array; settings: both partners purified
T1 construct: also called FP15 with Glu at residue 517; source: peptide microarray (PEPperPRINT)
T1 chain: AVGIGEVFLGFLGAA

[2] = target: T2, HIV-1 fusion peptide FP15 (Env residues 512-526, most common sequence) (HIV-1 Env fusion peptide 512-526, most …); test: peptide or protein array; settings: both partners purified
T2 construct: source: peptide microarray (PEPperPRINT)
T2 chain: AVGIGAVFLGFLGAA

[3] = target: T3, FP15 F519D (HIV-1); test: peptide or protein array
T3 sequence (peptide): AVGIGAVDLGFLGAA

[4] = target: T4, FP15 V518D (HIV-1); test: peptide or protein array
T4 sequence (peptide): AVGIGADFLGFLGAA

[5] = target: T5, FP15 V518E (HIV-1); test: peptide or protein array
T5 sequence (peptide): AVGIGAEFLGFLGAA

[6] = target: T6, FP15 F519E (HIV-1); test: peptide or protein array
T6 sequence (peptide): AVGIGAVELGFLGAA

[7] = target: T7, FP15 A517D (HIV-1); test: peptide or protein array
T7 sequence (peptide): AVGIGDVFLGFLGAA

[8] = target: T8, BG505_RnS soluble HIV-1 Env trimer (WT FP sequence) (HIV-1 BG505, UniProt Q2N0S6, stabilised); test: BLI; ForteBio Octet HTX; IgG loaded on anti-human Fc (AHC) tips at 20 ug/ml for 3 min; Env trimers at 50 ug/ml for 5 min, dissociation in PBS 5 min; corrected response values, triplicates; settings: both partners purified
T8 construct: also called BG505 trimer; not shown: single-chain Fc, N-terminal, cleaved; copies: 3 + 3

[9] = target: T8, BG505_RnS soluble HIV-1 Env trimer (WT …); test: BLI; settings: both partners purified

B1: ACS202 IgG (antibody, V domains shown)
VH: QVQLVESGGGVVQPGGSLRLSCAASGFAFKDFGMHWVRQAPGKGLEWVAVIGGGHGQHQSYSESVKGRFAITRDNEKNKLYLHMDRLRTEDTAVYYCAKDRLGRPWNIGGRLVYYYYGMDVWGQGTTVTVSS
VL: AIRMTQSPSSLSASVGDRVTITCQASQDIKKSLNWYRQKPGKAPELLIHDASILQTGVPSAFTASGSGTHFSFVINKLQPEDVGTYFCQEYENLQFTFGPGTKVEIK
notes: source: Expi293, transfected, purified (protein A)
[1]
  fold increase of binding intensity over WT: 10 fold
[2]
  binding result: binds
[3]
  fold increase of binding intensity over WT: 10 fold
[4]
  fold increase of binding intensity over WT: 10 fold
[5]
  fold increase of binding intensity over WT: 10 fold
[6]
  fold increase of binding intensity over WT: 10 fold
[7]
  fold increase of binding intensity over WT: 10 fold
[8]
  binding result: binds

B2: 0PV-c.01 IgG (antibody, V domains shown)
VH: QVQLVESGPGVVKPSETLSLTCVVSGGTPGRGFLYWSWVRQPPGKGLEWIGGTATNTDITDYNPSLKSRAAISKDTSRNQFLLNLKPLTAGDTAVYYCTSRAKDYRGPSYSRIDVWGPGVLVTVSS
VL: DIVMTQTPLSLPVTPGEPASISCRSSQSLLDSDGNTCLDWFLQKPGQSPQLLIYDVSNRVSGVPDRFSGSGSDTDFTLKISRVEAEDVGVYYCMQFVEFPLTFGGGTKVEIR
notes: as for B1
[2]
  binding result: binds

B3: N123-VRC34.01 IgG (antibody, V domains shown)
VH: QEVLVQSGAEVKKPGASVKVSCRAFGYTFTGNALHWVRQAPGQGLEWLGWINPHSGDTTTSQKFQGRVYMTRDKSINTAFLDVTRLTSDDTGIYYCARDKYYGNEAVGMDVWGQGTSVTVSS
VL: IQLTQSPSFLSASVGDKVTITCRASQGVRNELAWYQQKPGKAPNLLIYYASTLQSGVPSRFSATGSGTHFTLTVSSLQPEDFATYFCQHMSSYPLTFGGGTKVEIK
notes: as for B1
[9]
  binding result: binds
